Test results published in paper PMC8442553 (Science (New York, N.Y.), 2019).
One block for each binder: values may come before it.

B2: Rsc8 (natural protein, yeast)
chain: MSDTEKDKDVPMVDSHEATEEPPTTSTNTPSFPHLAQEQAKEESATLGAEVAHKKINYEQEAQKLEEKALRFLAKQTHPVIIPSFASWFDISKIHEIEKRSNPDFFNDSSRFKTPKAYKDTRNFIINTYRLSPYEYLTITAVRRNVAMDVASIVKIHAFLEKWGLINYQIDPRTKPSLIGPSFTGHFQVVLDTPQGLKPFLPENVIKQEVEGGDGAEPQVKKEFPVNLTIKKNVYDSAQDFNALQDESRNSRQIHKVYICHTCGNESINVRYHNLRARDTNLCSRCFQEGHFGANFQSSDFIRLENNGNSVKKNWSDQEMLLLLEGIEMYEDQWEKIADHVGGHKRVEDCIEKFLSLPIEDNYIREVVGSTLNGKGGDSRDGSVSGSKLMECVNDAVQTLLQGDDKLGKVSDKSREISEKYIEESQAIIQELVKLTMEKLESKFTKLCDLETQLEMEKLKYVKESEKMLNDRLSLSKQILDLNKSLEELNVSKKLVLISEQVDSGIQLVEKDQEGDDEDGNTATGHGVKRVGKEGEEVGEGDSIAKLQPQVYKPWSL

Tests used:
Assay in all cases: cryo-EM structure
[1] = biological target: T1, Rsc7 (yeast, UniProt P32832 1-435)
T1 sequence: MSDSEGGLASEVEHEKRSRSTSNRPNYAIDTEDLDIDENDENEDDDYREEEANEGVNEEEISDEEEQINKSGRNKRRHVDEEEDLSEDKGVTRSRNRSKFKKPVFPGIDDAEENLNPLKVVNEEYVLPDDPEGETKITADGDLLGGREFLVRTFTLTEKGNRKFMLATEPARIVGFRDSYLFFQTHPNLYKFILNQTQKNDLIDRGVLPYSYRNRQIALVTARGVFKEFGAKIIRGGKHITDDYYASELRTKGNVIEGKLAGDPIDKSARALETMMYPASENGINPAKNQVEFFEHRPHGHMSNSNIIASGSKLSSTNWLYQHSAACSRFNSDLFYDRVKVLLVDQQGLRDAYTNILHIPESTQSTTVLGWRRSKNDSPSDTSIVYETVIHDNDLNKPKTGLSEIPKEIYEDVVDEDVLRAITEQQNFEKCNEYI

[2] = biological target: T2, Sth1 (yeast, UniProt P32597 1-1359)
T2 sequence: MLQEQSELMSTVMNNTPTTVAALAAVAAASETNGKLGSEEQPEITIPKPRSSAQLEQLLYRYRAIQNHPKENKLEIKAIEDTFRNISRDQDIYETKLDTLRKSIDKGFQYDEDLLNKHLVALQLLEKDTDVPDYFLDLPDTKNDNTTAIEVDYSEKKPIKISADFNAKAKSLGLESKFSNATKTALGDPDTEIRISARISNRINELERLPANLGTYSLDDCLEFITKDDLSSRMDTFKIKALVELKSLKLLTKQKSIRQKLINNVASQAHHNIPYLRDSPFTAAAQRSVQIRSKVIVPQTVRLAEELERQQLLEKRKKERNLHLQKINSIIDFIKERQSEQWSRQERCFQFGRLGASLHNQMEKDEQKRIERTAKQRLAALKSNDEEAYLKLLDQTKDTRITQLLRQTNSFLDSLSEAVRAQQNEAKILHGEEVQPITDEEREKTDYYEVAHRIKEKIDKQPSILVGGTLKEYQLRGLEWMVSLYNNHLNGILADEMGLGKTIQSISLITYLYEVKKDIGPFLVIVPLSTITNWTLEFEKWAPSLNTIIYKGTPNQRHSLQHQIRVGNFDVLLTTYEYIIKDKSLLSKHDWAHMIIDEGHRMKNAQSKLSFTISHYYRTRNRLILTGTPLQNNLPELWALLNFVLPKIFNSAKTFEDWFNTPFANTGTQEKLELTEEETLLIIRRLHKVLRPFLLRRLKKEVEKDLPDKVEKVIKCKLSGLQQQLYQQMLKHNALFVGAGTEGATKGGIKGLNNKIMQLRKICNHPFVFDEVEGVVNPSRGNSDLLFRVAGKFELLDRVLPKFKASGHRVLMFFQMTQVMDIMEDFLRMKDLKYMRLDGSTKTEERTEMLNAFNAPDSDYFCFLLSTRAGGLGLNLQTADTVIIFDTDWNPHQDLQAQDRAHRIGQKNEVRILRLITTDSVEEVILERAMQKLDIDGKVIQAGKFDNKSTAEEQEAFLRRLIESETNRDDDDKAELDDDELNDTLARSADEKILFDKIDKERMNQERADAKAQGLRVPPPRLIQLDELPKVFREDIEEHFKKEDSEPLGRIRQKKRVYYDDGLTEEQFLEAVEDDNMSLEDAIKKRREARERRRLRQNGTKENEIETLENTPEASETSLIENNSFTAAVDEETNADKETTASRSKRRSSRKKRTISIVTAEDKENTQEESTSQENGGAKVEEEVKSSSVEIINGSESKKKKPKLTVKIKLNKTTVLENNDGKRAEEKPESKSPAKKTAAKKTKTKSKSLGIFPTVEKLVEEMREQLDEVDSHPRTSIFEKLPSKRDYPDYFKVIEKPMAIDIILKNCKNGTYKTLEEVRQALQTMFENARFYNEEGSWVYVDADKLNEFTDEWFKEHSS

[3] = biological target: the molecule itself
[4] = biological target: T3, Rsc9 (yeast, UniProt Q03124 1-581)
T3 sequence: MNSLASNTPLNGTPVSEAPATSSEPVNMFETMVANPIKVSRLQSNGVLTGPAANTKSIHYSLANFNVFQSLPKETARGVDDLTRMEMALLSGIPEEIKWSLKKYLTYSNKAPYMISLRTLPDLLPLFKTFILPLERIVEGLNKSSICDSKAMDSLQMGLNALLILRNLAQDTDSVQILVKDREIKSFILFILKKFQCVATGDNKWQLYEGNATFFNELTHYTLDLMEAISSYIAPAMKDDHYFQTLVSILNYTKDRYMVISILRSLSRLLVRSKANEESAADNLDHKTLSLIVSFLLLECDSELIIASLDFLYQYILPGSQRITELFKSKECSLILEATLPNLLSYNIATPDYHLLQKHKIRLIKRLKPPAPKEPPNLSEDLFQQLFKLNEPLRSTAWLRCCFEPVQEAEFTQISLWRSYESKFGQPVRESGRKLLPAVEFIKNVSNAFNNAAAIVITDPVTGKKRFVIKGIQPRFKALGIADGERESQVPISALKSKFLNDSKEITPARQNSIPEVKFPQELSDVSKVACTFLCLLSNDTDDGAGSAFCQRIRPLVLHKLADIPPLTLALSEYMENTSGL

[5] = biological target: B2
[6] = biological target: T4, Rsc58 (yeast, UniProt Q07979 1-502)
T4 sequence: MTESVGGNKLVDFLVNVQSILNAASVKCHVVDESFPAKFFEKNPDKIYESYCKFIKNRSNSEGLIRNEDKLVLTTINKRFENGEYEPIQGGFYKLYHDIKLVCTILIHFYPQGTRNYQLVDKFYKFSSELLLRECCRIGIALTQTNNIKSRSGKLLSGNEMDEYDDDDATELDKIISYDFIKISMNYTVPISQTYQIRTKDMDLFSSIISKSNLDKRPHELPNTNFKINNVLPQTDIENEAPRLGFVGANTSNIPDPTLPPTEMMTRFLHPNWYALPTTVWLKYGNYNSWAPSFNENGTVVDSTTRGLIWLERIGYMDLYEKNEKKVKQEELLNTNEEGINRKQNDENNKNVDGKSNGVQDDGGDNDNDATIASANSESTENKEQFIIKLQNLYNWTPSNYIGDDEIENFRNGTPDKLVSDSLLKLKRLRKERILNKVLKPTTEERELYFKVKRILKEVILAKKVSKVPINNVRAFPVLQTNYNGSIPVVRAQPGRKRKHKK

binding result [1]: binds
B1: Sfh1 (natural protein, yeast)
chain: MSHQNQLIPQAYISNFHNRLTNEDDGIPIFTMAQQTRQHKRAKVVNYAEYDNDLFDEFNMNGSNFNNADTHYKDNAVSHENTPALTNGVTMDGSEYNVLENMNGADSIISNNKYDAGSNMVVESLSGLNSNNNASNGPSNKAQAQDIGNAVLPDLQDQHHNPFNILRYPKIRDTFINGKVVSPYRLNTDQETKANANSGEAIMIPITLDIEHMGHTIKDQFLWNYNDDSISPEEFASIYCKDLDMTSATLQTQIANIIKEQLKDLENIAATEIMSDLHVIINLTCNLQDRFFEDNFQWNLNDKSLTPERFATSIVQDLGLTREFIPLISQSLHETILKIKKDWVDGHLIQDHVPNDAAFGYLSGIRLDIDELGSNWCPRVEILTKEEIQKREIEKERNLRRLKRETDRLSRRGRRRLDDLETTMRM

Binder: B2
binding result [2]: binds | binding result [3]: binds

binding result [4]: binds | binding result [5]: binds | binding result [6]: binds
B3: Rsc6 (natural protein, yeast)
chain: MVTQTNPVPVTYPTDAYIPTYLPDDKVSNLADLKKLIEMDSRLDLYLTRRRLDTSINLPTNTKTKDHPPNKEMLRIYVYNTTESSPRSDSGTPADSGKTTWTLRIEGKLLHESANGKHPFSEFLEGVAVDFKRLKPLGMGKKRKRDSSLSLPLNLQQPEYNDQDSTMGDNDNGEDEDSAEAESREEIVDALEWNYDENNVVEFDGIDIKRQGKDNLRCSITIQLRGVDGGKVQYSPNLATLIGMQTGSVNDAVYSIYKYILINNLFVTEQTEAQDGSNDAEDSSNENNNKNGAGDDDGVEGSTPKDKPELGEVKLDSLLQKVLDTNAAHLPLMNVVQTVNKLVSPLPPIILDYTIDLSKDTTYGATTLDVDVSHILHQPQPQPNLQKEEETDAEDTAKLREITKLALQLNSSAQKYQFFHELSLHPRETLTHYLWSSKQNELVLQGDQYFNEDAARTSDIYSNNNNDRSLMGNISLLYSQGRL
